Experimental findings from article PMC11955523, “Cryo-TEM structure of β-glucocerebrosidase in complex with its transporter LIMP-2” (Nature Communications, 2025) are described below.

What all share (conditions): both partners purified
Assay [1] addresses T1, β-glucocerebrosidase (GCase), untagged wild type (human, UniProt P04062, N-glycans at N19, N59, N146, N270).
T1 construct: β-glucocerebrosidase (GCase), human, gene GBA1, wild type, expressed from the commercial plasmid pCMV3-GBA-wt; also called GCase wt; wt GCase; source: HEK 293F-sL2 cells transfected with pCMV3-GBA-wt, secreted in complex with sLIMP-2, purified (Ni-NTA, SEC); HEK 293F cells co-transfected with sLIMP-2 plasmids, in conditioned medium
Kind of assay: cryo-EM structure; GCase/sLIMP-2/PMb1/PMb2 complex from SEC, 0.6 mg/ml, single particle analysis, 3.7 Å global resolution.

For assay [2], the target named is T2, GCase used for size exclusion chromatography with Nb1 and Nb6 (human, UniProt P04062).
T2 construct: β-glucocerebrosidase (GCase); it may be the same as m8 or another recombinant GCase
Nature of the assay: SEC; 20 µM GCase mixed with 100 µM Nb1, Nb6 or both; Superdex 200 Increase 5/150 GL, 10 mM MES, 100 mM NaCl, 1 mM DTT, 5% glycerol, pH 5.2, 12 °C.

For assay [3], the target named is T3, β-glucocerebrosidase (GCase), untagged wild type (human, UniProt P04062 40-536, N-glycans at N19, N59, N146, N270).
T3 construct: β-glucocerebrosidase (GCase), human, gene GBA1, wild type, expressed from the commercial plasmid pCMV3-GBA-wt; also called GCase wt; wt GCase; source: HEK 293F-sL2 cells transfected with pCMV3-GBA-wt, secreted in complex with sLIMP-2, purified (Ni-NTA, SEC); HEK 293F cells co-transfected with sLIMP-2 plasmids, in conditioned medium
T3 sequence (looked up): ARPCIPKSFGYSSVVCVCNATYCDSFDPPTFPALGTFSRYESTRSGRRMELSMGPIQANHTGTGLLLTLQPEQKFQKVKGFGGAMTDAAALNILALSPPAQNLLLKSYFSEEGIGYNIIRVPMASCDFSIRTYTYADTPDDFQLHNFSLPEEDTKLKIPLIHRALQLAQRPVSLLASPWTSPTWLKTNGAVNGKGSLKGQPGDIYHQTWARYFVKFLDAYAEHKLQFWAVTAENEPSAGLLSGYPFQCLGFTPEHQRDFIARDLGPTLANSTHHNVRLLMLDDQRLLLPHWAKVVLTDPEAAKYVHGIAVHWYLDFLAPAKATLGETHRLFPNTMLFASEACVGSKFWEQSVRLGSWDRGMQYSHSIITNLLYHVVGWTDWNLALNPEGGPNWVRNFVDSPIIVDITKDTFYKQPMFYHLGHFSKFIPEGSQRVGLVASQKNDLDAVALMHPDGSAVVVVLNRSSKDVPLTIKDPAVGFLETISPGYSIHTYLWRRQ
Kind of assay: cryo-EM structure; GCase/sLIMP-2/PMb1/PMb2 complex from SEC, 0.6 mg/ml, single particle analysis, 3.7 Å global resolution.

The target in assay [4] is T4, recombinant GCase with C-terminal His10-tag (for cross-linking with SapC) (human, UniProt P04062 40-536).
T4 construct: β-glucocerebrosidase (GCase), with a small spacer and a TEV protease cleavage site before the C-terminal His10-tag; no TEV cleavage is described; source: FreeStyle 293 HEK cells, stably transfected (pcDNA3.1(+)), purified from cell media (HisTrap)
T4 sequence (looked up): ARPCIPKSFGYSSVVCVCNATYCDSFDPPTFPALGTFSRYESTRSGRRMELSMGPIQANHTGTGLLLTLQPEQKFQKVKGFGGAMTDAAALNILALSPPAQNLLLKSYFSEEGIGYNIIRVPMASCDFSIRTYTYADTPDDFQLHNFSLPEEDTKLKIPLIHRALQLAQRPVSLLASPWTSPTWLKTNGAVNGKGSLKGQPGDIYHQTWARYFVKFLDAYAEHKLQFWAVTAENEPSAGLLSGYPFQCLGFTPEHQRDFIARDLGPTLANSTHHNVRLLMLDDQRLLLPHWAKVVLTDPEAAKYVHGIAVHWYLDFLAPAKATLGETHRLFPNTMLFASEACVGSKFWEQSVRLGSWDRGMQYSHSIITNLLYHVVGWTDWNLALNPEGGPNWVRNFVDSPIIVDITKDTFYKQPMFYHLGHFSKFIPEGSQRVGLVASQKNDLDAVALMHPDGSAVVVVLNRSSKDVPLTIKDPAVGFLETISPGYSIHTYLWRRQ
Kind of assay: cross-linking; GCase 16.3-20.0 µM and SapC 32.5 µM in McIlvaine buffer pH 6.0 with 10 mM NaCl (some reactions with 0.1% Triton X-100 and 0.25% sodium taurocholate); BS3(d0)/BS3(d4) or DTSSP at 1 mM, 1 h at room temperature; gel bands read by mass spectrometry.

B1: pro-macrobody PMb1 (nanobody Nb1, CA16655, fused to maltose binding protein) (VHH)
VHH: QVQLVESGGGLVQPGGSLRLSCAASGFTLDYYAIGWFRQAPGKEREGVSCISSSDGSTYYADSAKGRFTISRDNAKNTVYLQMNSLKPEDTAVYYCATDRGQCTYYSSGYYRDLRWYDYWGQGTQVTVPP
notes: nanobody Nb1 (CA16655) raised against GCase; proline-proline linker, told in words; The N-terminal pelB-10xHis-MBP was removed with 3C protease; the C-terminal MBP is part of the pro-macrobody and was detected by anti-MBP blot; By my reading of the printed primers the C-terminal MBP begins at LVIWING after the PP linker and ends at KDAQT followed by PGA; Only the nanobody domain is modelled in …
As for B1, the binding result in assay [1] is “binds”.

B2: nanobody Nb1 (CA16655) against GCase (VHH)
VHH: QVQLVESGGGLVQPGGSLRLSCAASGFTLDYYAIGWFRQAPGKEREGVSCISSSDGSTYYADSAKGRFTISRDNAKNTVYLQMNSLKPEDTAVYYCATDRGQCTYYSSGYYRDLRWYDYWGQGTQVTVSS
notes: nanobody Nb1 (CA16655); they are in PDB 9ENA and, as the nanobody domain of m3, in PDB 9FJF; Encoded in a pHEN29 vector; also called Nbs1
Consider B2, for which the binding result in assay [2] is reported as “binds”.

B3: soluble LIMP-2 shuttle construct (sLIMP-2), secreted LIMP-2 ectodomain, wild type (domain or fragment, human, UniProt Q14108 36-431, looked up)
chain: SIEKKIVLRNGTEAFDSWEKPPLPVYTQFYFFNVTNPEEILRGETPRVEEVGPYTYRELRNKANIQFGDNGTTISAVSNKAYVFERDQSVGDPKIDLIRTLNIPVLTVIEWSQVHFLREIIEAMLKAYQQKLFVTHTVDELLWGYKDEILSLIHVFRPDISPYFGLFYEKNGTNDGDYVFLTGEDSYLNFTKIVEWNGKTSLDWWITDKCNMINGTDGDSFHPLITKDEVLYVFPSDFCRSVYITFSDYESVQGLPAFRYKVPAEILANTSDNAGFCIPEGNCLGSGVLNVSICKNGAPIIMSFPHFYQADERFVSAIEGMHPNQEDHETFVDINPLTGIILKAAKRFQINIYVKKLDDFVETGDIRTMVFPVMYLNESVHIDKETASRLKSMINT
modifications: N-glycans at N45, N68, N105, N206, N224, N249, N304, N325, N412
notes: lysosomal integral membrane protein type-2 (LIMP-2), human, gene SCARB2, amino acids 36-431 (ectodomain); the 10xHis tag is TEV-cleavable, and no cleavage is described; also called wt sLIMP-2; lysosomal integral membrane protein type-2; source: HEK 293F cells transfected, in conditioned medium; not shown: His10, C-terminal, kept
As to B3, in assay [3], the binding result is “binds”.

B4: pro-macrobody PMb2 (nanobody Nb6, CA16669, fused to maltose binding protein) (VHH)
VHH: QVQLVESGGGLVQPGGSLRLSCAASGSIFSINTMGWYRQAPGKEREMVAYIITFGSTNYADSVKGRFTISGDNANNTMWLQMNSLKPEDTAVYYCYAAIRPTDSSTYTSYWGQGTQVTVPP
notes: nanobody Nb6 (CA16669) raised against GCase; proline-proline linker, told in words; The N-terminal pelB-10xHis-MBP was removed with 3C protease; Only the nanobody domain is modelled in PDB 9FJF; also called PMbs; source: E. coli MC1061, purified (Ni-NTA, 3C cleavage, second IMAC, SEC); not shown: His10, N-terminal, cleaved; MBP, N-terminal, cleaved
Regarding B4, the binding result in assay [1] is recorded as “binds”.

B5: nanobody Nb6 (CA16669) against GCase (VHH)
VHH: QVQLVESGGGLVQPGGSLRLSCAASGSIFSINTMGWYRQAPGKEREMVAYIITFGSTNYADSVKGRFTISGDNANNTMWLQMNSLKPEDTAVYYCYAAIRPTDSSTYTSYWGQGTQVTVPP
notes: nanobody Nb6 (CA16669); they are, as the nanobody domain of m4, in PDB 9FJF; Encoded in a pHEN29 vector
B5: in assay [2], the binding result is recorded as “binds”.

B6: Saposin C (SapC) (natural protein, Homo sapiens, UniProt P07602 311-390, looked up)
chain: SDVYCEVCEFLVKEVTKLIDNNKTEKEILDAFDKMCSKLPKSLSEECQEVVDTYGSSILSILLEEVSPELVCSMLHLCSG
notes: Saposin C, Homo sapiens, the cut product of prosaposin; synthetic gene, codon optimised for E. coli, in pET-28a(+); The His6-tag is followed by a TEV protease cleavage site; no cleavage is described in the purification; source: E. coli BL21(DE3) or BL21(DE3)pLysS, purified (HisTrap, Superdex 75)
For the molecule B6, the binding result in assay [4] was “binds”.
